Results on 7 molecules are retold here after patent US10684274 (GEORGE WASHINGTON UNIVERSITY A CONGRESSIONALLY CHARTERED …, dated 2020).

Where a chain is given by its changes, count along the chain named. Names may count otherwise.

Test [1] has as its target endogenous calnexin (HEK293T and other human cells) (human) (UniProt P27824). In words: co-immunoprecipitation from HEK293T cells transfected with HIV-1 molecular clones; IP of endogenous calnexin with anti-CNX antibody, western blot for Nef; reference lane. Background: In western blotting, separated proteins are transferred to a membrane and probed.
Test [2] shares this target. The test is described as follows: co-immunoprecipitation with endogenous calnexin, HEK293T cells (FIG. 3A).
The target is the same in test [3]. The test is described as follows: co-immunoprecipitation with endogenous calnexin, HEK293T cells transfected with mutant HIV-1 NL4-3 clone, immunoblot for Nef.
For test [4] the target is unchanged. In words: co-immunoprecipitation from HEK293T cells transfected with HIV-1 molecular clones; IP of endogenous calnexin with anti-CNX antibody, western blot for Nef; relative to the Nef wt lane; no Nef band is visible in this lane.
The target in a further test is T1, myristoylated NefSF2 (HIV-1, UniProt P03407 2-210, myristoylated (site not given)).
T1 construct: Analyte in SPR
The test is described as follows: SPR, Biacore T-200, CNX-CT amine-coupled on CM5 chip, Nef as analyte, 25 C.

For test [5], the target named is T2, HA-tagged calnexin with deletion of the lumenal repeat segment (CNXΔ276-409) (human, UniProt P27824 21-592).
T2 construct: Made by restriction digest and re-ligation, so junction residues are not known
T2 sequence: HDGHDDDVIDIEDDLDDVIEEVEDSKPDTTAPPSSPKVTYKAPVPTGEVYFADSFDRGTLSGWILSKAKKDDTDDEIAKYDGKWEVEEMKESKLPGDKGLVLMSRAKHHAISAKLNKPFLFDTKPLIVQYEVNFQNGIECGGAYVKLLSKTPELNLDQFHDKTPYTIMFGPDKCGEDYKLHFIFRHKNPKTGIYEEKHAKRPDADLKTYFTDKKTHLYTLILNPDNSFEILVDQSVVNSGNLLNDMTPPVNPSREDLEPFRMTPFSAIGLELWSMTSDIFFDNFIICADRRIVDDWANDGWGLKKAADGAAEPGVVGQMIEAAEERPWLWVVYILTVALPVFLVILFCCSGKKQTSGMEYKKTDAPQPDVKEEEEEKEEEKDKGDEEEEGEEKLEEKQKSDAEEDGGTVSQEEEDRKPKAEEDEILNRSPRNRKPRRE
The test is described as follows: co-immunoprecipitation with anti-HA beads from HEK293T lysates, immunoblot for Nef, densitometry.

Test [6] concerns the target T3, HA-tagged calnexin with truncation of the C-terminal cytoplasmic domain (CNXΔ504-586) (human, UniProt P27824 21-592).
T3 sequence: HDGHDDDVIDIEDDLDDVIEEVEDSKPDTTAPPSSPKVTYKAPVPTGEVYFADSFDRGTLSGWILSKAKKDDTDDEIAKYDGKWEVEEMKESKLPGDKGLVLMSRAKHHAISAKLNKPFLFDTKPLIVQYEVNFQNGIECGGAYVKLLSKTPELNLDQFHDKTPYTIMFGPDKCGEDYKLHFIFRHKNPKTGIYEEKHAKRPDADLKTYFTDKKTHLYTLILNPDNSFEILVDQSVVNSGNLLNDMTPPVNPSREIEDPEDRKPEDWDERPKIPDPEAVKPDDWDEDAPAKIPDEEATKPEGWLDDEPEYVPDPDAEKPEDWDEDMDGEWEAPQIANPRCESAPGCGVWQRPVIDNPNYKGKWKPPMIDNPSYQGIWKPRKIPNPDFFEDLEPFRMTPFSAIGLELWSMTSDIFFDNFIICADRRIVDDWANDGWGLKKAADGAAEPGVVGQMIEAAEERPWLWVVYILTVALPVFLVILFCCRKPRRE
The test is described as above.

Test [7] concerns the target T4, ABCA1-FLAG (ATP-binding cassette A1 with FLAG tag) (UniProt O95477 1-2261).
T4 construct: whole, on cells; Immunoprecipitated with anti-FLAG beads from lysates; not shown: FLAG tag
The test is described as follows: co-immunoprecipitation with ABCA1-FLAG (anti-FLAG beads), HEK293T cells, densitometry.

For test [8], the target named is T5, endogenous calnexin (HEK293T and other human cells) (human, UniProt P27824 21-592).
T5 construct: Endogenous cellular protein, immunoprecipitated with a monoclonal anti-calnexin antibody or co-precipitated with HA-Nef; also called CNX
T5 sequence: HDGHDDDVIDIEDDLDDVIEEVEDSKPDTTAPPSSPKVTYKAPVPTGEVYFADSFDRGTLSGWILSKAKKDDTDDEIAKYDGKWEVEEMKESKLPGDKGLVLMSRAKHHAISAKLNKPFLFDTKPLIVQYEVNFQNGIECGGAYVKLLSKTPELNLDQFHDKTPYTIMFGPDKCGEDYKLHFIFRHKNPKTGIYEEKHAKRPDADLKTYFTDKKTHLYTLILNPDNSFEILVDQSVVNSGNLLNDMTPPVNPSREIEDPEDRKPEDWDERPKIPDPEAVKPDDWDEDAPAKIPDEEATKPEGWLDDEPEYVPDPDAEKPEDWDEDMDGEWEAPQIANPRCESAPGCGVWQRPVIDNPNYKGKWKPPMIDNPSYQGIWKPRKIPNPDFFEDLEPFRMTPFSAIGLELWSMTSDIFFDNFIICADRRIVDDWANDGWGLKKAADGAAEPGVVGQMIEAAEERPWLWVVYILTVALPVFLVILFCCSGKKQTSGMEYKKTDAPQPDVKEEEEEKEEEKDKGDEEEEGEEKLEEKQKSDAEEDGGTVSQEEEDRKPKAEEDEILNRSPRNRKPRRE
In words: co-immunoprecipitation with endogenous calnexin (monoclonal anti-calnexin), HEK293T cells, immunoblot for Nef.

Test [9] deals with T5, endogenous calnexin (HEK293T and other …). The test is described as follows: co-immunoprecipitation from HEK293T cells transfected with pcDNA Nef plasmids; IP of endogenous calnexin with anti-CNX antibody, western blot for Nef; relative to the Nef wt lane.
For test [10] the target is unchanged. The test is described as follows: co-immunoprecipitation with endogenous calnexin, HEK293T cells, densitometry.

As usually defined, the Kd is the equilibrium constant for the complex coming apart. A low value points to a tighter complex. For orientation: koff means the rate constant with which the complex falls apart. A low value points to a long-lived complex. For orientation: kon means the rate constant with which the complex forms. Read a high kon as faster complex formation.

T4 sequence (O95477 whole entry): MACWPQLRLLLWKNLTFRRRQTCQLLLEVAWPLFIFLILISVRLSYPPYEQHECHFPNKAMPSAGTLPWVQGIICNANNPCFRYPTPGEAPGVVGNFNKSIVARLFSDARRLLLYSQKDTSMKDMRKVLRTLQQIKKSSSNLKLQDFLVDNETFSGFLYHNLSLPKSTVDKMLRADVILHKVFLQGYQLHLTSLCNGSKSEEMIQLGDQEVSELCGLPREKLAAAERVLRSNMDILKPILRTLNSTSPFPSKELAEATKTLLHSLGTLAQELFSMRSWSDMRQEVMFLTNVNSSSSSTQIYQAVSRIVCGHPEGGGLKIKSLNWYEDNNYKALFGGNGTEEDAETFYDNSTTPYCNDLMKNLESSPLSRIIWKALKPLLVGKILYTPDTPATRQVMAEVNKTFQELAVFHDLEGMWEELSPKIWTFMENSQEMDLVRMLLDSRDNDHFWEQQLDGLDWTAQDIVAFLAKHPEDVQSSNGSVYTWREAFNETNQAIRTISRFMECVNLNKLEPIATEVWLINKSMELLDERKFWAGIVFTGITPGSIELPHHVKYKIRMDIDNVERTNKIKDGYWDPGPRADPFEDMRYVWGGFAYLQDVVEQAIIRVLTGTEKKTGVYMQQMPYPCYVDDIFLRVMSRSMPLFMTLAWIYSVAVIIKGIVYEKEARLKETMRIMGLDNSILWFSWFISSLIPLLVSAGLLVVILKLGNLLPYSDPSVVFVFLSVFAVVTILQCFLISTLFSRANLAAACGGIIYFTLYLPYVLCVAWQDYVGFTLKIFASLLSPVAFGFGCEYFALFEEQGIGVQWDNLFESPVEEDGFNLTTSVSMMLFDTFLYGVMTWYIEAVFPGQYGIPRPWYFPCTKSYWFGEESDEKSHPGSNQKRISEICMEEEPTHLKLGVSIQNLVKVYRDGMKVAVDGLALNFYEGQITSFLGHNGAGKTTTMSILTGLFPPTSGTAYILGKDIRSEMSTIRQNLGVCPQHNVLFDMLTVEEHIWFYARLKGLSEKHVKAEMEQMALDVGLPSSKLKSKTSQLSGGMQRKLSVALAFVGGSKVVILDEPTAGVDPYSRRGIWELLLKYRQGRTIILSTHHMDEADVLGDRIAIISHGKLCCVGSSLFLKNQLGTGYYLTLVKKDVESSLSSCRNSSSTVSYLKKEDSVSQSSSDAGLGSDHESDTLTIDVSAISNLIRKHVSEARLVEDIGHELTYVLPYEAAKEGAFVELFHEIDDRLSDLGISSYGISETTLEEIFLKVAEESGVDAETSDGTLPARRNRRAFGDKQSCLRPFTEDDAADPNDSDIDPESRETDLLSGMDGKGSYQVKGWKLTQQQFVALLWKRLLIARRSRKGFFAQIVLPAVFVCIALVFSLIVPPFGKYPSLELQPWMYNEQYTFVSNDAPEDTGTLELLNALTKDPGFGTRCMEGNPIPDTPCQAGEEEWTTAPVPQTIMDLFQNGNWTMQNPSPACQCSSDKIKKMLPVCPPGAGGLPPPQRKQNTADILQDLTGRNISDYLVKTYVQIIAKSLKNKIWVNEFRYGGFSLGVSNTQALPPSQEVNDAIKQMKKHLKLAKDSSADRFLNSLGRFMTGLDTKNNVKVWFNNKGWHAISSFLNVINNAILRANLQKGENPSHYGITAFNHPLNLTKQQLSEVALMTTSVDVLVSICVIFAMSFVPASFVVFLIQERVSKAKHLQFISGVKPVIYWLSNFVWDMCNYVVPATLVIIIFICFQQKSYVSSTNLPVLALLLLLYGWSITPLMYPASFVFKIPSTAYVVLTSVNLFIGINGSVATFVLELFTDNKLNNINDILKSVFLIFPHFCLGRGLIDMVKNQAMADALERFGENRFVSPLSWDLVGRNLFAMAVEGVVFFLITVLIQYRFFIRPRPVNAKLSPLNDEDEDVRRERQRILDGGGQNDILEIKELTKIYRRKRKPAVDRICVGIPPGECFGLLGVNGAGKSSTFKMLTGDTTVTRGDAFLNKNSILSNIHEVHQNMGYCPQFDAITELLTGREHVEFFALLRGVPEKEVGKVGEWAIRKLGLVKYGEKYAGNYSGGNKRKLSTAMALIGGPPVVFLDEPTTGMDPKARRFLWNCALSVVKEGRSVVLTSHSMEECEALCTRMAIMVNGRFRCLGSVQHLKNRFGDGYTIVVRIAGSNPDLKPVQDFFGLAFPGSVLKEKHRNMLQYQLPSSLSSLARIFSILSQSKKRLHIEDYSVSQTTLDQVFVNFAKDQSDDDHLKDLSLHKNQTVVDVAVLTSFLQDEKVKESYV

In the case of “HIV-1 NL4-3 Nef, wild type (expressed from HIV-1 NL4-3 molecular clone)”, the relative amount of co-precipitated Nef (gel densitometry) in test [1] is 1.

The molecule “HIV-1 NL4-3 Nef K4,7A mutant (expressed from mutant HIV-1 NL4-3 clone)” gave a loss of interaction relative to Nef WT in [2] above 95%. Further, in test [3], the reduction of interaction relative to Nef WT was 95%. Moreover, the relative amount of co-precipitated Nef (gel densitometry) in test [4] was 0.05.

B1: recombinant calnexin cytoplasmic tail (CNX-CT), N-terminal His-tag and SUMO domain, purified from E. coli (other)
chain: HHHHHHHHCSGKKQTSGMEYKKTDAPQPDVKEEEEEKEEEKDKGDEEEEGEEKLEEKQKSDAEEDGGTVSQEEEDRKPKAEEDEILNRSPRNRKPRRE
notes: also called cytoplasmic tail of CNX; C-terminal (cytoplasmic) domain of CNX
Turning to B1, in the test with myristoylated NefSF2, binding was characterised by a dissociation constant (Kd) of 9.4 nM, the koff is 0.00857 s⁻¹ and the kon was 908000 M⁻¹ s⁻¹.

B2: HIV-1 Nef, BRU isolate, wild type (NefBRU) (other)
chain: GGKWSKSSVVGWPTVRERMRRAEPAADGVGAASRDLEKHGAITSSNTAATNAACAWLEAQEEEEVGFPVTPQVPLRPMTYKAAVDLSHFLKEKGGLEGLIHSQRRQDILDLWIYHTQGYFPDWQNYTPGPGVRYPLTFGWCYKLVPVEPDKVEEANKGENTSLLHPVSLHGMDDPEREVLEWRFDSRLAFHHVARELHPEYFKNC
notes: whole, on cells; also called Nef WT; WT Nef
Turning to B2, the results for the “reduction of binding relative to WT calnexin” value in test [5] and in test [6] were 40% and 70%, respectively.

B3: HIV-1 Nef BRU K4,7A double mutant (NefK4,7A, pcDNA plasmid) (other)
chain: B2 chain with K3A, K6A
notes: whole, on cells; Expressed in HEK293T cells, co-immunoprecipitated from lysates
Turning to B3, in test [7], the “reduction of interaction relative to wild-type Nef” value was around 30%. Besides, the binding result in test [8] is reported as “no binding”. Besides, the “relative amount of co-precipitated Nef (gel densitometry)” value (shortened to “relative amount of co-precipitated Nef”) in test [9] is 0.01.

B4: HIV-1 Nef BRU K4A mutant (NefK4A) (other)
chain: B2 chain with K3A
notes: as for B3
For B4, in test [10], the “reduction of interaction relative to WT Nef” value was determined as 50%. Moreover, the “relative amount of co-precipitated Nef” value in test [9] is 0.5.

B5: HIV-1 Nef BRU K7A mutant (NefK7A) (other)
chain: B2 chain with K6A
notes: as for B3
As for B5, in [10], the “reduction of interaction relative to WT Nef” value came out at 90%. The “relative amount of co-precipitated Nef” value in test [9] turned out to be 0.1.
